In paper PMC7253548:

Target: OsHsfB4d (Oryza sativa (rice; cv. Zhonghua 11?)) (UniProt Q10KX8)
Assay: EMSA
Conditions: room temperature 20 min, buffer

Sequence of OsHsfB4d (Oryza sativa (rice; cv. Zhonghua 11?)) (Q10KX8 whole entry): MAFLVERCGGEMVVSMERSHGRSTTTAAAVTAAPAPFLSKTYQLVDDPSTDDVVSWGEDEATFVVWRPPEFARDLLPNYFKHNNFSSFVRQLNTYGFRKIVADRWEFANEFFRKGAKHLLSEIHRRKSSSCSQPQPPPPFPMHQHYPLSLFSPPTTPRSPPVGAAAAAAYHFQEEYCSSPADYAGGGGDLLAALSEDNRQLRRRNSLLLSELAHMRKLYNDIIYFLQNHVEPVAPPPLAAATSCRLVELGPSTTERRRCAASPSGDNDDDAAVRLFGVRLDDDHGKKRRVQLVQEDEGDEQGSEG

## CGTCGGAATAGCTGCGAATTTGGAGGTGGAACGATCGGACTTCTCTGAGTTCTTACTCTGATGTTTGCTTGGTTTGCTTTGCGTTTTCTTCGTGGTTCTGCCGGTGAAGGGGAGCGCGGTTTTATAGAGGGCAGCGAGAGGGCATCGTGGAGCTTGGAATAAGCTTCTAGAAACTTCCAGTTTGCCCCCGCATGGGCTAGAACCTAGTACGAGATAGCTTGGGCTAGAAGTTTACACCACCGGTAGCGGGGTGGGCTGTAGCCCATAGCGTCCAG (double strand)
  binding: binds
